Source: US6344321, “Nucleic acid ligands which bind to hepatocyte growth factor/scatter factor (HGF/SF) or its receptor c-met” (Gilead Sciences, Inc.)
Where a chain is given by its changes, count along the chain named.

B1: 11-163 (ssRNA)
RNA: GGGAGGACGAUGCGGGCUUGAGUCUUUGAUCGUCUUAUCCCUCGUCAGACGACUCGCCCGA
modifications: 2'-F pyrimidines
B2: 8-174 (ssRNA)
RNA: GGGAGGACGAUGCGGUCGAGCUUCUGAGUUAAACUGGGGCCUCCUCAGACGACUCGCCCGA
modifications: 2'-F pyrimidines
B3: 8-126 (ssRNA)
RNA: GGGAGGACGAUGCGGGUGACUCAAAAUGGUGAUCCUCGUUUCCGCCAGACGACUCGCCCGA
modifications: 2'-F pyrimidines
B4: 8-104 (ssRNA)
RNA: GGGAGGACGAUGCGGGCGACUCAAUCUGAAUCGUCUUGUCCCGUGCAGACGACUCGCCCGA
modifications: 2'-F pyrimidines
B5: 11-153 (ssRNA)
RNA: GGGAGGACGAUGCGGACAGGUAGUCUUCUAUAGCACUUCCUCCCCCAGACGACUCGCCCGA
modifications: 2'-F pyrimidines
B6: 11-9 (ssRNA)
RNA: GGGAGGACGAUGCGGCGUGAGCCUGUUUAUGACCUCGUCCAUGGCCAGACGACUCGCCCGA
modifications: 2'-F pyrimidines
B7: 11-158 (ssRNA)
RNA: B6 RNA with U18A, G19U, G25A, A41C, U42C, G44U, C45G
modifications: 2'-F pyrimidines
B8: 11-217 (ssRNA)
RNA: B6 RNA with G25U, U26C, U27C, U28A, C34G, A41U
modifications: 2'-F pyrimidines
B9: 8-125 (ssRNA)
RNA: GGGAGGACGAUGCGGUGUGAACCUGUUUAUGUCAUCUUUUGUCGUCAGACGACUCGCCCGA
modifications: 2'-F pyrimidines
B10: 11-17 (ssRNA)
RNA: GGGAGGACGAUGCGGGUUAGAGCGUGACAGUCGUCUUAUCCCGGGUCACAGACGACUCGCCCGA
modifications: 2'-F pyrimidines
B11: 11-208 (ssRNA)
RNA: GGGAGGACGAUGCGGGUUUGAGUGACGAUCGUCUUGUCCCAUGUGCAGACGACUCGCCCGA
modifications: 2'-F pyrimidines
B12: 8-119 (ssRNA)
RNA: GGGAGGACGAUGCGGGCCAUUCGAUCGAUUCUCCGCCGGAUCGUGCAGACGACUCGCCCGA
modifications: 2'-F pyrimidines
B13: 11-212 (ssRNA)
RNA: GGGAGGACGAUGCGGGUUUGAGUUAAACAUCGGUUUUCUCCUGCAGACGACUCGCCCGA
modifications: 2'-F pyrimidines
B14: 11-165 (ssRNA)
RNA: GGGAGGACGAUGCGGGUUGAUAGGAGUCAUCAUCGUCUUGUCCGCCAGACGACUCGCCCGA
modifications: 2'-F pyrimidines
B15: 8-3 (ssRNA)
RNA: GGGAGGACGAUGCGGAUCCCGCGACCAGGGCGUUUCUUCCUCGUCCCAGACGACUCGCCCGA
modifications: 2'-F pyrimidines
B16: 11-76 (ssRNA)
RNA: GGGAGGACGAUGCGGUCAGCGGCGCGAGCCUGUUUAUGUCUGCUGCAGACGACUCGCCCGA
modifications: 2'-F pyrimidines
B17: 11-65 (ssRNA)
RNA: GGGAGGACGAUGCGGUGAUAACCUGUUUAUGCCAUCGUGCUGGGCCAGACGACUCGCCCGA
modifications: 2'-F pyrimidines
B18: 11-221 (ssRNA)
RNA: GGGAGGACGAUGCGGGCAGAGCGAAAAUCGUCUUGUCCCCGACGCCAGACGACUCGCCCGA
modifications: 2'-F pyrimidines
B19: 11-103 (ssRNA)
RNA: GGGAGGACGAUGCGGUGAUUACCUAUUAUGUCUCGCCCUCUCCAGACGACUCGCCCGA
modifications: 2'-F pyrimidines
B20: 11-110 (ssRNA)
RNA: GGGAGGACGAUGCGGUGAUUACCUAUUUAUGUCAUGCUCCUCCCCCAGACGACUCGCCCGA
modifications: 2'-F pyrimidines
B21: 11-222 (ssRNA)
RNA: GGGAGGACGAUGCGGACAUAAGUCUUCUAUAGCUCGUCCUUUGUGCAGACGACUCGCCCGA
modifications: 2'-F pyrimidines
B22: 11-151 (ssRNA)
RNA: GGGAGGACGAUGCGGUGAGUCAUAGUGUUGAUCGUCGUAUCCCGUCAGACGACUCGCCCGA
modifications: 2'-F pyrimidines
B23: 8-113 (ssRNA)
RNA: GGGAGGACGAUGCGGUGAAUUCCUCUGGCUGAAAAUGACUUGUGCCAGACGACUCGCCCGA
modifications: 2'-F pyrimidines
B24: 11-59 (ssRNA)
RNA: GGGAGGACGAUGCGGCGUGAGCCUGUAUAUGUCAUUGUUCUCCGGCAGACGACUCGCCCGA
modifications: 2'-F pyrimidines
B25: 11-104 (ssRNA)
RNA: GGGAGGACGAUGCGGGUUUGAGUGAUGUCGUCUUGUCCCGCCUGCCAGACGACUCGCCCGA
modifications: 2'-F pyrimidines
B26: 11-123 (ssRNA)
RNA: GGGAGGACGAUGCGGGUGACUCAAAAUGGUGAUCCUCGUUUCGCCAGACGACUCGCCCGA
modifications: 2'-F pyrimidines
B27: 11-6 (ssRNA)
RNA: GGGAGGACGAUGCGGGACGCGUUGAUUCAUCGUCUUAUCCUGCUGCAGACGACUCGCCCGA
modifications: 2'-F pyrimidines
B28: 8-101 (ssRNA)
RNA: GGGAGGACGAUGCGGGUGACUCAAAAUGGUGAUCCUCGAUUUCCGCCAGACGACUCGCCCGA
modifications: 2'-F pyrimidines
B29: 8-165 (ssRNA)
RNA: GGGAGGACGAUGCGGCGAGAGCCUAUUUAUGUCAUCAUGCCUGUGCAGACGACUCGCCCGA
modifications: 2'-F pyrimidines
B30: 8-114 (ssRNA)
RNA: B29 RNA with A18U, C40U
modifications: 2'-F pyrimidines
B31: 8-171 (ssRNA)
RNA: B29 RNA with A18G, A25U, C40U
modifications: 2'-F pyrimidines
B32: 8-17 (ssRNA)
RNA: GGGAGGACGAUGCGGGCGGCUCGAUGUCGUCUUAUCCCUUUGCCCCAGACGACUCGCCCGA
modifications: 2'-F pyrimidines
B33: 8-158 (ssRNA)
RNA: B32 RNA with G16C, U35C
modifications: 2'-F pyrimidines
B34: 11-7 (ssRNA)
RNA: GGGAGGACGAUGCGGGUGGAGUCAAAUCGUCUUGUCCCUUGUCCUCAGACGACUCGCCCGA
modifications: 2'-F pyrimidines
B35: 8-122 (ssRNA)
RNA: GGGAGGACGAUGCGGCGGUGUGAACCUGUUUAUGUCCGCGUACCCCAGACGACUCGCCCGA
modifications: 2'-F pyrimidines
B36: 8-118 (ssRNA)
RNA: GGGAGGACGAUGCGGGGCGACUUUCCUCCAAUUCUCACCUCUGCACAGACGACUCGCCCGA
modifications: 2'-F pyrimidines
B37: 11-215 (ssRNA)
RNA: GGGAGGACGAUGCGGGUAGUGAGUUUUCAUUGUCUUGUCCCCGUGCAGACGACUCGCCCGA
modifications: 2'-F pyrimidines
B38: 11-166 (ssRNA)
RNA: GGGAGGACGAUGCGGGUUUGAGUUCUGACACGUCUUGUCCCAUGCCAGACGACUCGCCCGA
modifications: 2'-F pyrimidines
B39: 11-8 (ssRNA)
RNA: GGGAGGACGAUGCGGUCAGUAUGACUUUUAUAGCACGUUCGCCCCAGACGACUCGCCCGA
modifications: 2'-F pyrimidines
B40: 11-157 (ssRNA)
RNA: B39 RNA with U20A, U29C, U38C, C40U, G41U
modifications: 2'-F pyrimidines
B41: 11-126 (ssRNA)
RNA: GGGAGGACGAUGCGGGUUUGGGUCUUGAUCUCGUCUUGUCCCGUGCAGACGACUCGCCCGA
modifications: 2'-F pyrimidines
B42: 8-155 (ssRNA)
RNA: GGGAGGACGAUGCGGUGUGAACCUAUUUAUGCCAUCUCGAGUGCCCAGACGACUCGCCCGA
modifications: 2'-F pyrimidines
B43: 8-112 (ssRNA)
RNA: GGGAGGACGAUGCGGUCCCGAAUUUAAGUGCGUUUCCUCCGCGUCCAGACGACUCGCCCGA
modifications: 2'-F pyrimidines
B44: 8-123 (ssRNA)
RNA: B43 RNA with A22G, A26G, U29G, C37U, C40U, G41U
modifications: 2'-F pyrimidines
B45: 8-154 (ssRNA)
RNA: B43 RNA with G20A, A22G, U23A, A26C, U29G, C37U, G41U
modifications: 2'-F pyrimidines
B46: 8-103 (ssRNA)
RNA: GGGAGGACGAUGCGGGCCGAAAAUUCGUCGACAUCUCCCUGUCUGCAGACGACUCGCCCGA
modifications: 2'-F pyrimidines
B47: 11-223 (ssRNA)
RNA: GGGAGGACGAUGCGGUCAGUAUGGCUUCUAUAGCUCGUUCCUCGGCAGACGACUCGCCCGA
modifications: 2'-F pyrimidines

Each binder was assayed against HGF (hepatocyte growth factor/scatter factor) (UniProt P14210;P14210 P14210:32-494,P14210:495-728) (assay: filter; HBSMC, 37C). Settings: tags: R&D Systems.
Sequence of HGF (hepatocyte growth factor/scatter factor) (P14210 32-494, chain 1 of 2): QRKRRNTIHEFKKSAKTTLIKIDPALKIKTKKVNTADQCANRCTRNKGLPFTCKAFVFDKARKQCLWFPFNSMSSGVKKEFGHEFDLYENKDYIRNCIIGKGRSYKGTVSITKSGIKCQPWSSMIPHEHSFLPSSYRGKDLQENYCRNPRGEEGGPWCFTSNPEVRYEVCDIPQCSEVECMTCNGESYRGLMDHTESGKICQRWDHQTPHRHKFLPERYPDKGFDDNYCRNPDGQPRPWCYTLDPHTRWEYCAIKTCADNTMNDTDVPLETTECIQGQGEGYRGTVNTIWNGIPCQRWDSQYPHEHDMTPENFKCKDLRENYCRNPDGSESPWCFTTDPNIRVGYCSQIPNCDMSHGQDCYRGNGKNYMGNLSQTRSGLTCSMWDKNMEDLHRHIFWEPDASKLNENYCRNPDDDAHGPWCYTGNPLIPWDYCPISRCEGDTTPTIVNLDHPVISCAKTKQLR
Sequence of HGF (hepatocyte growth factor/scatter factor) (P14210 495-728, chain 2 of 2): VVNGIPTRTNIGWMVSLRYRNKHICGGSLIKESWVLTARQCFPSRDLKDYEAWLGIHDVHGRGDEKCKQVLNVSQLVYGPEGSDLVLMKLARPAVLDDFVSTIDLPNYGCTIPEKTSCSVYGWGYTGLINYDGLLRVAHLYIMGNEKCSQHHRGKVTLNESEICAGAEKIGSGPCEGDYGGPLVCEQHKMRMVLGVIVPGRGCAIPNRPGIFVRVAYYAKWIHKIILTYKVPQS
Method: In binding reactions, RNA concentrations were kept as low as possible—between 1 and 20 pM—to ensure equilibrium in conditions of protein excess. Oligonucleotides were incubated for 15 minutes at 37° C. with varying amounts of the protein in 43 µl of the binding buffer. Thirty-two microliters of each binding mixture placed on pre-wet 0.45 µm nitrocellulose filters under suction. Each well was immediately washed with 0.5 ml binding buffer. The amount of radioactivity retained on the filters was quantitated by imaging. The radioactivity that bound to filters in the absence of protein was used for background correction. The percentage of input oligonucleotide retained on each filter spot was plotted against the corresponding log protein concentration. The nonlinear least square method was used to obtain the dissociation constant (K_d; reference Jellinek, Lynott et al. 1993, Proc. Natl. Acad. Sci. USA. 90:11227–31).
B1 showed a Kd of 0.082 nM. In the case of B2, the Kd is reported as 0.23 nM. B3 showed a Kd of 0.099 nM. Binder B4 has a Kd of 0.05 nM. In the case of B5, the Kd is reported as 0.19 nM. B6 showed a Kd of 0.074 nM. In the case of B7, the Kd is reported as 0.17 nM. For B8, the Kd was 0.071 nM. With B9 the Kd was 0.075 nM. Binder B10 has a Kd of 0.13 nM. Binder B11 has a Kd of 0.06 nM. B12 was tested, and the Kd was 0.11 nM. In the case of B13, the Kd is reported as 0.075 nM. For B14, the Kd was 0.073 nM. B15 gave a Kd of 0.13 nM. Work on B16 yielded a Kd of 0.076 nM. B17 gave a Kd of 0.11 nM. B18 was tested, and the Kd was 0.062 nM. For B19, the Kd was 0.2 nM. In the case of B20, the Kd is reported as 0.086 nM. B21 was tested, and the Kd was 0.077 nM. B22 was tested, and the Kd was 0.17 nM. Binder B23 has a Kd of 0.083 nM. Work on B24 yielded a Kd of 0.11 nM. B25 showed a Kd of 0.091 nM. For B26, the Kd was 0.09 nM. Work on B27 yielded a Kd of 0.24 nM. B28 was tested, and the Kd was 0.095 nM. B29 was tested, and the Kd was 0.1 nM. Binder B30 has a Kd of 0.071 nM. B31 showed a Kd of 0.12 nM. B32 was tested, and the Kd was 0.095 nM. With B33 the Kd was 0.31 nM. In the case of B34, the Kd is reported as 0.11 nM. B35 showed a Kd of 0.097 nM. B36 was tested, and the Kd was 0.16 nM. With B37 the Kd was 0.091 nM. Work on B38 yielded a Kd of 0.079 nM. With B39 the Kd was 0.15 nM. Work on B40 yielded a Kd of 0.26 nM. B41 was tested, and the Kd was 0.17 nM. B42 gave a Kd of 0.093 nM. Binder B43 has a Kd of 0.13 nM. In the case of B44, the Kd is reported as 0.21 nM. B45 was tested, and the Kd was 0.12 nM. Binder B46 has a Kd of 0.12 nM. With B47 the Kd was 0.12 nM.
